# Experimental data from patent US7915393B2 (Corixa Corporation, priority 2001, dated 2011).
# Test system: WT1-specific CTL targets (DC transduced with WT1 or pulsed with WT1 peptides)
# Experiment: CTL by chromium release after WT1 DNA or adenovirus/alphavirus immunization
# Type: in vivo, C57/BI6 mice; HLA-A2/Kb transgenic mice
# Settings: C57/BI6 mice, 3 x 100 μg, 25:1 E:T ratio
# Description: Mice were sacrificed 2-3 weeks after the final immunization and CTL were evaluated by standard Chromium release assay.
# Mice were sacrificed 2-3 weeks after the final immunization and CTL were evaluated by standard Chromium release assay. […] Thus, this immunization strategy also effectively elicits WT1-specific CTL in vivo.
molecule,measurement,value
"WT1 DNA: naked DNA encoding the splice variant of WT1, SEQ ID NO:381 (nucleic acid) DNA: ATGGGCTCCGACGTTCGTGACCTGAACGCACTGCTGCCGGCAGTTCCGTCCCTGGGTGGTGGTGGTGGTTGCGCACTGCCGGTTAGCGGTGCAGCACAGTGGGCTCCGGTTCTGGACTTCGCACCGCCGGGTGCATCCGCATACGGTTCCCTGGGTGGTCCGGCACCGCCGCCGGCACCGCCGCCGCCGCCGCCGCCGCCGCCGCACTCCTTCATCAAACAGGAACCGAGCTGGGGTGGTGCAGAACCGCACGAAGAACAGTGCCTGAGCGCATTCACCGTTCACTTCTCCGGCCAGTTCACTGGCACAGCCGGAGCCTGTCGCTACGGGCCCTTCGGTCCTCCTCCGCCCAGCCAGGCGTCATCCGGCCAGGCCAGGATGTTTCCTAACGCGCCCTACCTGCCCAGCTGCCTCGAGAGCCAGCCCGCTATTCGCAATCAGGGTTACAGCACGGTCACCTTCGACGGGACGCCCAGCTACGGTCACACGCCCTCGCACCATGCGGCGCAGTTCCCCAACCACTCATTCAAGCATGAGGATCCCATGGGCCAGCAGGGCTCGCTGGGTGAGCAGCAGTACTCGGTGCCGCCCCCGGTCTATGGCTGCCACACCCCCACCGACAGCTGCACCGGCAGCCAGGCTTTGCTGCTGAGGACGCCCTACAGCAGTGACAATTTATACCAAATGACATCCCAGCTTGAATGCATGACCTGGAATCAGATGAACTTAGGAGCCACCTTAAAGGGCCACAGCACAGGGTACGAGAGCGATAACCACACAACGCCCATCCTCTGCGGAGCCCAATACAGAATACACACGCACGGTGTCTTCAGAGGCATTCAGGATGTGCGACGTGTGCCTGGAGTAGCCCCGACTCTTGTACGGTCGGCATCTGAGACCAGTGAGAAACGCCCCTTCATGTGTGCTTACCCAGGCTGCAATAAGAGATATTTTAAGCTGTCCCACTTACAGATGCACAGCAGGAAGCACACTGGTGAGAAACCATACCAGTGTGACTTCAAGGACTGTGAACGAAGGTTTTTTCGTTCAGACCAGCTCAAAAGACACCAAAGGAGACATACAGGTGTGAAACCATTCCAGTGTAAAACTTGTCAGCGAAAGTTCTCCCGGTCCGACCACCTGAAGACCCACACCAGGACTCATACAGGTGAAAAGCCCTTCAGCTGTCGGTGGCCAAGTTGTCAGAAAAAGTTTGCCCGGTCAGATGAATTAGTCCGCCATCACAACATGCATCAGAGAAACATGACCAAACTCCAGCTGGCGCTTTGAG",lysis (WT1-specific cytotoxic T cell response),40%
